Data from article doi:10.1101/2021.09.07.459239.

B1: CD80 cytosolic tail peptide (20-mer) (peptide)
peptide: PRCRERRRNERLRRESVRPV
B2: CD86 cytosolic tail peptide (20-mer) (peptide)
peptide: LWKWKKKKRPRNSYKCGTNT

Columns and labels:
[1] = biological target: CD86 cytosolic tail peptide (20-mer); test: ELISA
[2] = biological target: CD80 cytosolic tail peptide (20-mer); test: ELISA
[3] = biological target: rF2-Nef protein (HIV-1 Subtype C), full length wild type (HIV-1 subtype C (F2 isolate)); test: MST

Molecule | fold increase of ELISA signal over CD74 peptide or no-peptide wells [1] [fold] | fold increase of ELISA signal over CD74 peptide or no-peptide wells [2] [fold] | Kd [3] [µM]
rF2-Nef protein (HIV-1 Subtype C), full length wild type (natural protein) | 4 | 4 | 
B1 |  |  | 27
B2 |  |  | 0.112
